± gives the uncertainty stated by the source.

The nature of this data set: amyloid nucleation score (Sup35N fusion, yeast selection) (log enrichment); library NNK1; higher = more nucleation; inactive = no reads after selection. In a few lines: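 Sup35N was fused to peptides of 20 random codons and expressed in psi-negative yeast, which were induced with 100 μM copper sulfate for 24 hours and then grown on medium lacking adenine and uracil for 7 days at 30°C. Plasmid inserts from input and output were sequenced on Illumina. The nucleation score is the DiMSum log enrichment of output over input reads, centred on the mode score of non-aggregating sequences. Sequences with under 100 input reads were left out, and random libraries had three technical output replicates.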

GLFVREFPLDMIVVMVRSMC had an amyloid nucleation score of -0.017 ± 0.97.
EMCFGLFGKLVWCETWLVKA displayed an amyloid nucleation score of 0.344 ± 0.32.
FATFRMSCPAKTVSVAVIGG registered an amyloid nucleation score of -0.069 ± 0.77.
KWLLTDDLRSGISAWWECPL yielded an amyloid nucleation score of -0.233 ± 0.62.
In turn, GSYGNDVWRP yielded an amyloid nucleation score of -0.041 ± 0.47.
The substance LYACNFFVFISRPAGMDSAS returned an amyloid nucleation score of 5.29 ± 0.079.
As to ECMVYDYNYWVHVYGITYCC, the amyloid nucleation score stood at 0.242 ± 0.35.
In turn, PMLGGRESEEPRVGWKVGWV returned an amyloid nucleation score of 0.377 ± 0.27.
For NNHFFMILYINKMVYMILKV, the amyloid nucleation score stood at 0.38 ± 0.52.
For VLFLDI, the amyloid nucleation score is 0.793 ± 0.58.
For VSSVGVDMMYLTTRGGCHSI, the amyloid nucleation score result was “inactive”.
Take SRWTFSNRAFYRTGAWA: the amyloid nucleation score came to 0.235 ± 0.68.
Take FLLHWFEYGIPNVYRSRRD: the amyloid nucleation score result is “inactive”.
IIGLVWSVL had an amyloid nucleation score of 0.993 ± 0.58.
The figure for IGLMALLGLTRDR is 2.17 ± 0.12.
For the substance KLNGNINFCFNCGNSGF, the amyloid nucleation score was determined as 7.27 ± 0.046.
In the case of SIGNKYKSIVWYFKCCLANL, the amyloid nucleation score was determined as 5.97 ± 0.066.
On to GELWLAHLLLRSRVRTHRCP, for which the amyloid nucleation score was 5.78 ± 0.068.
Substance QMVYRYDER registered an amyloid nucleation score of -1.43 ± 1.6.
The substance FNSARGSLVPRFPRGEQR gave an amyloid nucleation score of -0.787 ± 1.9.
In the case of MKQQAQPVFVWSSAGGGCES, the amyloid nucleation score was -0.606 ± 0.47.
The substance HIFWYCHMFPVVMASIIINS registered an amyloid nucleation score of 0.637 ± 0.59.
In turn, LLVVRNLEGNNIHALVLCVG showed an amyloid nucleation score of 1.91 ± 0.21.
In the case of ENRYMELTFQCSARRVG, the amyloid nucleation score is 2.81 ± 0.11.
To NCACC belongs 6.12 ± 0.065; to KWCISKSFFVYPTMMR, 0.437 ± 0.44.
In the case of NSCQNPSEGF, the amyloid nucleation score is -0.376 ± 1.2.
VFSFLPSYGHKCTAKQFFSA came in with an amyloid nucleation score of -0.3 ± 1.4.
Substance HRCQSSSRRPMNGFGTCQRS showed an amyloid nucleation score of 0.321 ± 0.34.
The substance IRMFSTLLACNLVIGGCLAN returned an amyloid nucleation score of 6.482 ± 0.053.
The substance SFVRGFYVNFRFSKGILDMF had an amyloid nucleation score of -0.082 ± 0.32.
NTLCLHDFFHGLILWLSHQA returned an amyloid nucleation score of 1.01 ± 0.49.
The substance FTVLVELALFMRSCLSRGFN returned an amyloid nucleation score of -0.261 ± 0.27.
HGGRDVCDKGVSSRGHRW displayed an amyloid nucleation score of 0.276 ± 0.79.
With KSSCRDLIVDVNTGE, the amyloid nucleation score was 0.765 ± 0.38.
GRMHKLVNCRAFTGLYKGIY: the amyloid nucleation score is -1.03 ± 0.62.
In the case of LNSLPLSTVLYSFRVMYWMY, the amyloid nucleation score entry was “inactive”.
VETRRWFHRL returned an amyloid nucleation score of -0.177 ± 1.4.
To GVDSFTDSIEYKVGRRVFRH belongs 1.21 ± 0.76.
For the substance FTRKEVVPMWDKEDRVCIGD, the amyloid nucleation score was determined as 0.02 ± 0.74.
On to LLYPHSTSRGLIMTFYPKSG, for which the amyloid nucleation score amounted to 0.54 ± 0.6.
To MGVLKWLATRLDWFKKIMCR belongs 2.3 ± 0.13.
To QRCTIYRSSI belongs “inactive”.
Turning to ALTVTCFLVPGSYIIHVGMK, the amyloid nucleation score was -0.332 ± 0.37.
As to WMSLIGKNMRMIMVIKKWAL, the amyloid nucleation score entry is “inactive”.
PALWWSMYSIQCPEEIGGAV showed an amyloid nucleation score of 0.405 ± 0.55.
Take RGRTRLKFLCLLYWWGKTKG: the amyloid nucleation score is -0.4 ± 0.44.
As for VLMQVSTLAAWDSKRDMTSC, the amyloid nucleation score was 0.528 ± 0.35.
As to SIQCKKFGGIWCTDTRSIGP, the amyloid nucleation score stood at 1.33 ± 0.33.
As to GGLVYRLEKDSF, the amyloid nucleation score entry was “inactive”.
Take TMGLSLYGV: the amyloid nucleation score is -0.174 ± 0.51.
RYVSVTGYDAQCRYCDKGTG returned an amyloid nucleation score of -0.326 ± 0.44.
The entry for SLMCSPNGDESRQWNPRARQ is “inactive”; for KIGRGRSNAVLLLAEDVYVG it is -0.57 ± 1.2; for GLKIQPLCS it is 0.373 ± 0.49.
ECGVFQVKTAGIGS: the amyloid nucleation score is -0.425 ± 0.8.
In turn, AQGVNSFCIEVFHCEGVMDP gave an amyloid nucleation score of -0.003 ± 0.38.
Take VSFSCLMSPE: the amyloid nucleation score was determined as 0.126 ± 0.32.
The substance WSRAVVFMSIHFRNGLMQ had an amyloid nucleation score of -0.444 ± 0.64.
RRGEPIKKIPACGGSLCVR gave an amyloid nucleation score of -0.368 ± 0.47.
YLVMRMMVLRMAKPKIVGRD returned an amyloid nucleation score of 5.524 ± 0.051.
MGFQFNTFCF registered an amyloid nucleation score of 8.144 ± 0.062.
Substance SPHAIGRYLSFCRFCGTAAR yielded an amyloid nucleation score of -0.026 ± 0.35.
In the case of LRSMCSCHVRPIYPFCGHY, the amyloid nucleation score worked out at 0.242 ± 0.81.
For SYPCTVHTKGWLVFTCGVCI, the amyloid nucleation score amounted to 0.32 ± 0.73.
SDSFLSSYHSFMRDVWV: the amyloid nucleation score worked out at 0.872 ± 0.58.
To HWVLDWQAQVRMPRNSVSGL belongs “inactive”; to GALVCRCDGCYKSMGKAIMA, -0.243 ± 0.56.
With SFKPSSFKFTIT, the amyloid nucleation score is -0.605 ± 0.41.
NPFCFMMRTGRSGSGWVKRR registered an amyloid nucleation score of 0.088 ± 0.54.
As for QDRPYVFY, the amyloid nucleation score was -0.331 ± 0.44.
Regarding ILSFSVRLPVHDSSLCFGSG, the amyloid nucleation score amounted to 0.316 ± 0.67.
In turn, LRIDFGDATSVGRRRFMCTV registered an amyloid nucleation score of -0.199 ± 1.5.
The figure for VPVGRWRSWICVRIRL is 0.831 ± 0.65.
In the case of RQFIELKCLFPMADVIVF, the amyloid nucleation score is 0.315 ± 0.38.
As for YTDFRQSLLTVT, the amyloid nucleation score stood at 0.07 ± 0.43.
In turn, TVYSLYVIDALGFLCTNVML displayed an amyloid nucleation score of 0.349 ± 0.62.
The figure for SYVMGLVYLIYTCKYWFFSE is -0.827 ± 1.7; for SKFIYRRLKELFVFGYSIVT it is “inactive”; for LLNFFK it is 0.609 ± 1.1.
TMSHCVRRCGVMGGVVAFKG gave an amyloid nucleation score of -0.031 ± 0.38.
The figure for FGIPST is 1.05 ± 0.34; for KFNITFVSVKSYKVPLSLDI it is 4.81 ± 0.066.
The substance RERESQMYFNLFSENTY registered an amyloid nucleation score of -0.435 ± 0.51.
YKAERVKSVRTITPRVTLLW registered an amyloid nucleation score of -0.331 ± 0.61.
Substance CRNSTVGITLIGWTSHFFNI displayed an amyloid nucleation score of 1.2 ± 0.76.
To FGGWNYYYLAVQYIFLDTGV belongs 2.45 ± 0.15; to NYFAIPCFESWSWRMYKVGF, 0.186 ± 0.9; to SVMGVSWFLFLDYGDSINFR, 0.521 ± 0.36.
Take DVSVT: the amyloid nucleation score result is “inactive”.
TMTSPVGWETSSFRRMDR: the amyloid nucleation score was 0.796 ± 0.52.
The figure for INLMGSPS is -0.708 ± 0.28.
In turn, LVTRLALSFAVNFLLGDSCV displayed an amyloid nucleation score of 0.595 ± 0.48.
To NVLWGCQPNFVWDAWLRTEH belongs 0.777 ± 0.73; to YLCSSVPLSEHNLILSITWD, “inactive”; to TDFMVGCVNMRRSESVWYC, 0.767 ± 0.39.
Regarding CAHIY, the amyloid nucleation score is -0.747 ± 0.99.
For the substance PALFVCSSFKLFMPNILGNQ, the amyloid nucleation score is 6.16 ± 0.063.
As for SPAMYPHNSRFLMYITSFMQ, the amyloid nucleation score was 1.08 ± 0.72.
Substance EGGSF had an amyloid nucleation score of 0.059 ± 0.45.
Substance DLIAARLAALF came in with an amyloid nucleation score of -0.964 ± 0.39.
As for VGPIFLHTLRRSVN, the amyloid nucleation score is -0.532 ± 0.83.
SVYPLF gave an amyloid nucleation score of -0.268 ± 0.28.
Consider TAASTHLVSACTLTKRCERL, for which the amyloid nucleation score is -0.673 ± 0.92.
The figure for DHASIGMALYCFCYQVSFIL is 0.391 ± 0.42; for CRHLFNWASWSTFTRIS it is 0.375 ± 0.23; for YCTLFGSWPLIVVVGG it is -0.772 ± 0.77.
RFNISIPD: the amyloid nucleation score was -1.01 ± 0.5.
Substance AYIVNIELGNRTS showed an amyloid nucleation score of 7.04 ± 0.056.
Take LPCSRRTTPSDVCP: the amyloid nucleation score is -0.271 ± 0.36.
For the substance VLTVAGF, the amyloid nucleation score is -0.561 ± 0.44.
FPLCSCHCYSSTWMCYRASL had an amyloid nucleation score of 0.048 ± 0.97.
As to SCNWDRNVLDMFFLN, the amyloid nucleation score result was “inactive”.
As for VFLIDLLLTMCFFLYGAFLV, the amyloid nucleation score worked out at 0.76 ± 1.1.
In turn, RRICSNCLFSGGIWNISGWV gave an amyloid nucleation score of 0.509 ± 1.1.
The substance SKLMTRVTVWLGSYGRGSWH came in with an amyloid nucleation score of 0.629 ± 0.83.
As for GGVLGSTKSLFVDPANLGGL, the amyloid nucleation score result is “inactive”.
For the substance IMVCN, the amyloid nucleation score was -0.197 ± 0.42.
The entry for FVVSLECTTRRVGLGALC is “inactive”.
Turning to FDSGLETTNIKMRYMVVYLR, the amyloid nucleation score was -0.608 ± 0.38.
Substance CFINSDVMVLLVTTYHYS registered an amyloid nucleation score of 7.321 ± 0.071.
The figure for DAIPFMFPNLMVMK is 0.155 ± 0.55; for VANFET it is -0.769 ± 1.1; for VYVKYP it is -0.125 ± 0.77.
The substance SCMRSKWKNTWLKYRYVNCI displayed an amyloid nucleation score of -0.493 ± 0.62.
As for NKSNSLYGSLKWGDRAYSSY, the amyloid nucleation score was -1.31 ± 0.71.
Substance DFIKYAFSWE returned an amyloid nucleation score of -0.347 ± 0.36.
In turn, LWSVVYIVIYHLMSNADWST had an amyloid nucleation score of -0.252 ± 0.41.
SYTYCLVVG displayed an amyloid nucleation score of 0.157 ± 1.4.
SCRLIDWVPSHSRYRTFCCE returned an amyloid nucleation score of -0.386 ± 0.37.
Take WVWKTNWWYTRRIASLWDSR: the amyloid nucleation score was determined as 1.7 ± 0.56.
The figure for DGQVSAVESMLRRWDSPVKG is 0.18 ± 1; for TQRTAFRGR it is 0.203 ± 0.75; for WELVCISFLVRDTCVVI it is 0.263 ± 0.47.
To GRGVPGCGCIRDRSLMTNWS belongs -0.664 ± 0.41.
DAALVIYLL: the amyloid nucleation score was -0.6 ± 0.52.
Regarding CSSFAQ, the amyloid nucleation score is 0.549 ± 0.31.
As to TNITNLSSFVMDDTGWSVNE, the amyloid nucleation score result is “inactive”.
HWLQY: the amyloid nucleation score came to 0.156 ± 0.43.
As to FACMEGSLVM, the amyloid nucleation score result is “inactive”.

The values are drawn from the supplement of paper PMC12042874.
